The values below come from patent US20190359693A1.

The chains are these.
B1: SD1018 (VHH)
VHH: EVQLVESGGGLVQAGGSLRLSCAASGQTYHMGWFRQTPGNERESVAAVTWSGAVTRYADSVKGRFTISRDNAKNTVYLQMNSLVPEDTAIYYCAATRSMAPIIQLSPGSYDYWGPGTQVTVSS
B2: SD1035 (VHH)
VHH: EVQLVESGGGLVQAGGTLRLSCAASGSAVSISRMAWYRQAPGKQRELVADIFSGGGTNYADSVKGRFTISRDNAKNTVDLQMNSLKPEDTAVYYCSARSAVAAIHWDQYDYWGQGTQVTVSS
B3: SD1071 (VHH)
VHH: EVQLVESGGGLVQTGESLRLSCAFSGFTYSTYWMYWVRQGPEKGLKWVSSTNAAGTVTYYAANVRDRFTASKDNAKNTLYLQMNRLKPEDTGLYYCASKDGLIVAATLDDYDYRGQGTQVTVSS
B4: SD1027 (VHH)
VHH: EVQLVESGGGMVQAGGSLRLSCAASGGTFSLYHMGWFRQAPGEEREFVAAISGSGGNTYYADSVKGRFTISRDNNKNTVYLQMSSLEPEDTAVYFCAAMKWPGILRDANAYDYWGQGTQVTVSS
B5: SD1072 (VHH)
VHH: EVQLVESGGGLVEAGGSLRLSCAVSGRTFSMYATGWFRQAPGKEREFVAAINSSGDKTTYADSVEGRFTISRDIGTVYLQMNNLNPEDTAVYYCAAARTLAVVTIPGGYEYWGQGTQVTVSS
B6: SD1074 (VHH)
VHH: EVQLVESGGGLVQAGGSLRLSCAASRNFDAIGAMGWYRQAPGKQRELVAEITSDGSTNYTDSVKGRFTISRDNALRTMYLQMNALEPEDTAVYYCKADISIYGLTNFPYWGQGTQVTVSS
B7: SD1047 (VHH)
VHH: EVQLVESGGGLVQAGGSLRISCAASGRTYAMAWFRQAPGKEREFVAHINALGTRTYYSDSVKDRFTISRDNAKNTEYLQMNSLKPEDTAVYYCVAGGQWRAAPVAAAESYDFWGQGTQVTVSS
B8: SD3031 (VHH)
VHH: EVQLVESGGGLVQPGGSLRLSCAVSISIFDIYAMDWYRQAPGKQRDLVATSFRDGSTNYADSVKGRFTISRDNAKNTLYLQMNSLKPEDTAVYLCHVSLYRDPLGVAGGVGVYWGKGALVTVSS
B9: SD3089 (VHH)
VHH: EVQLVESGGGVVQPGGSLRLSCAASISIFDIYAMHWYRQAPGKQRELVSVSFRDGSTYYADSVKGRFTISRDNSKNTLYLQMNSLRAEDTAVYYCHVSLYRDPLGVAGGLGVYWGQGTLVTVSS
B10: SD3080 (VHH)
VHH: B9 VHH with H35D, S49A, A87P
B11: SD3078 (VHH)
VHH: B9 VHH with H35D
B12: SD3018 (VHH)
VHH: B9 VHH with S49A, Y94L, L110M, Q116K, T118A
B13: SD3032 (VHH)
VHH: B8 VHH with V110A
B14: SD3019 (VHH)
VHH: B9 VHH with Y94L, L110M, Q116K, T118A
B15: SD3020 (VHH)
VHH: B9 VHH with S49A, A87P, Y94L, L110M, Q116K, T118A
B16: SD3033 (VHH)
VHH: B8 VHH with V110F
B17: MD2307 (bispecific antibody)
chain: EVQLVESGGGLVQPGGSLRLSCAATGFTLENKAIGWFRQTPGSEREGVLCISKSGSWTYYTDSMRGRFTISRDNAENTVYLQMDSLKPEDTAVYYCATTTAGGGLCWDGTTFSRLASSWGQGTQVTVSSGGGGSGGGGSEVQLVESGGGLVQAGDSLRISCAASGRTLSIYSMGWFRQAPGKEREFVATIGWNSGRTFYPDSLKGRFTISRDNARNTLYLQMNNLRPEDTAVYYCAAAKGPLRLSSQADYWGQGTQVTVSSGGGGSGGGGSEVQLVESGGGLVQAGDSLRLSCAASGPTFGMSAMGWFRQAPGKEREFVAAISGLGNPNYSDDVKGRFTISRENGRNTVYLQMNSLKPEDTAVYYCAQRKVYHVQGGDRPQAYDYWGQGTQVTVSS
B18: MD2308 (bispecific antibody)
chain: EVQLVESGGGLVQAGDSLRISCAASGRTLSIYSMGWFRQAPGKEREFVATIGWNSGRTFYPDSLKGRFTISRDNARNTLYLQMNNLRPEDTAVYYCAAAKGPLRLSSQADYWGQGTQVTVSSGGGGSGGGGSEVQLVESGGGLVQPGGSLRLSCAATGFTLENKAIGWFRQTPGSEREGVLCISKSGSWTYYTDSMRGRFTISRDNAENTVYLQMDSLKPEDTAVYYCATTTAGGGLCWDGTTFSRLASSWGQGTQVTVSSGGGGSGGGGSEVQLVESGGGLVQAGDSLRLSCAASGPTFGMSAMGWFRQAPGKEREFVAAISGLGNPNYSDDVKGRFTISRENGRNTVYLQMNSLKPEDTAVYYCAQRKVYHVQGGDRPQAYDYWGQGTQVTVSS

Where a chain is given by its changes, count along the chain named. Bounds are passed on as bounds.

The first test deals with HA of H1N1 A/New Caledonia/20/1999 (influenza A virus). The experiment in a line: cell-based or functional assay.
For B1, the VNA titer is more than 1000 nM.

In turn, B2 yielded a VNA titer of 74.8 nM.

On to B3, for which the VNA titer turned out to be 1260 nM.

B4 showed a VNA titer of 862 nM.

For B5, the VNA titer was determined as 78.5 nM.

Take B6: the VNA titer was determined as 113 nM.

The target in the next test is HA of H3N2 A/Brisbane/10/2007 (influenza A virus). The experiment in a line: cell-based or functional assay.
As for B1, the VNA titer was more than 1000 nM.

For the molecule B3, the VNA titer was more than 1000 nM.

B4: the VNA titer is more than 1000 nM.

B5: the VNA titer was more than 1000 nM.

Molecule B6 came in with a VNA titer of more than 1000 nM.

The target in another test is HA of H5N1 A/Vietnam/1194/04 (influenza A virus). The experiment in a line: cell-based or functional assay.
Consider B1, for which the VNA titer was found to be 615 nM.

Consider B3, for which the VNA titer came to 111 nM.

On to B4, for which the VNA titer was more than 1000 nM.

Molecule B5 registered a VNA titer of 444 nM.

B7 yielded a VNA titer of more than 1000 nM.

Molecule B6 came in with a VNA titer of 638 nM.

The next test concerns the target HA of H7N3 A/NIBRG/60 (A/mallard/NL/12/00) (influenza A virus). Briefly: cell-based or functional assay.
For B1, the VNA titer was more than 1000 nM.

As for B2, the VNA titer is more than 1000 nM.

B3 had a VNA titer of more than 1000 nM.

The molecule B4 had a VNA titer of more than 1000 nM.

The molecule B5 gave a VNA titer of more than 1000 nM.

In the case of B7, the VNA titer came out at 510 nM.

The molecule B6 yielded a VNA titer of more than 1000 nM.

The next test addresses hemagglutinin (HA) of influenza A/Brisbane/10/07 (H3N2) (influenza A virus A/Brisbane/10/07 (H3N2)). The experiment in a line: cell-based or functional assay.
Regarding B8, the VNA IC50 is more than 1000 nM.

B9 yielded a VNA IC50 of 1190 nM.

B10 registered a VNA IC50 of 632 nM.

As to B11, the VNA IC50 came out at 632 nM.

In the next test the target is hemagglutinin (HA) of influenza A/New Caledonia/20/99 (H1N1) (influenza A virus A/New Caledonia/20/99 (H1N1)). Briefly: cell-based or functional assay.
B12 gave a VNA IC50 of 6 nM.

B8 returned a VNA IC50 of 37 nM.

Take B13: the VNA IC50 was more than 500 nM.

Molecule B14 gave a VNA IC50 of 4 nM.

In turn, B9 returned a VNA IC50 of 3 nM.

In turn, B10 had a VNA IC50 of 5 nM.

Consider B15, for which the VNA IC50 turned out to be 4 nM.

Consider B16, for which the VNA IC50 was 51 nM.

Regarding B11, the VNA IC50 is 8 nM.

In another test the target is hemagglutinin (HA) of influenza A/Vietnam/1194/04 (H5N1) (influenza A virus A/Vietnam/1194/04 (H5N1)). The experiment in a line: cell-based or functional assay.
For B12, the VNA IC50 was determined as 8 nM.

In turn, B8 gave a VNA IC50 of 51 nM.

B13 came in with a VNA IC50 of more than 500 nM.

In turn, B14 displayed a VNA IC50 of 8 nM.

B9 came in with a VNA IC50 of 20 nM.

Consider B10, for which the VNA IC50 was found to be 16 nM.

B15 yielded a VNA IC50 of 15 nM.

On to B16, for which the VNA IC50 was determined as 316 nM.

With B11, the VNA IC50 worked out at 20 nM.

A further test has as its target hemagglutinin (HA) of influenza virus H3N2 A/Brisbane/10/07 (influenza A virus). Briefly: cell-based or functional assay.
On to B17, for which the average neutralization titer came out at 30.4 nM.

For B18, the average neutralization titer was 15.3 nM.

In the next test the target is hemagglutinin (HA) of influenza virus H5N1 A/Vietnam/1194/04 (influenza A virus). The experiment in a line: cell-based or functional assay.
For B17, the average neutralization titer came to 21.6 nM.

In turn, B18 showed an average neutralization titer of 21.6 nM.

A further test has as its target hemagglutinin (HA) of influenza virus H7N3 A/NIBRG/60 (A/mallard/Netherlands/12/00) (influenza A virus). The experiment in a line: cell-based or functional assay.
As to B17, the average neutralization titer amounted to 18.1 nM.

Molecule B18 registered an average neutralization titer of 12.8 nM.
